We go through nine molecules from US20260116991A1 (HAINAN SIMCERE ZAIMING PHARMACEUTICAL, published 2026).

For assay [1], the target named is T1, polypeptide GC3pep of human GPC3 (Ala524-Lys563) (human).
T1 construct: Residues Ala524-Lys563 of human GPC3 (NCBI NM_004484.3); coated on the ELISA plate; also called membrane proximal polypeptide GC3pep
T1 peptide: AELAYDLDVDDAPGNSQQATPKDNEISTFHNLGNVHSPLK
Nature of the assay: ELISA, coated peptide. (ELISA stands for enzyme-linked immunosorbent assay.)

The target of assay [2] is T2, murine GPC3-His protein (Sino Biological, Cat. No. 50989-M08B) (murine, UniProt Q8CFZ4 25-558).
T2 construct: Bought protein; also called murine GPC3 protein; mouse GPC3-his protein; not shown: His tag
In words: ELISA, coated antigen.

Assay [3] deals with T3, polypeptide GC3pep (human).
T3 construct: also called membrane proximal polypeptide GC3pep
T3 peptide: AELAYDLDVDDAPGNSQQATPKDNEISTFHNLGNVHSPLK
In words: ELISA, GC3pep coated, antibody 0.001 nM.

Assay [4] addresses T3, polypeptide GC3pep. In words: ELISA, GC3pep coated, antibody 100 nM.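 Further: detection with an HRP-conjugated secondary antibody and TMB substrate, color reaction stopped with HCl before absorbance reading.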
Assay [5] deals with T3, polypeptide GC3pep. In words: ELISA, GC3pep coated, antibody 0.0001 nM.
The next assay concerns the target T4, murine GPC3-His protein (murine, UniProt Q8CFZ4 25-558, limits assumed).
T4 construct: bought protein; also called murine GPC3 protein
Nature of the assay: SPR, antibody captured on Protein A chip, murine GPC3-His injected. A general note: Surface plasmon resonance follows binding to a sensor surface in real time, without labels.

Assay [6] addresses T3, polypeptide GC3pep. In words: ELISA, GC3pep coated, antibody 1 nM.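 Further: bound antibody detected with an HRP-conjugated secondary antibody and TMB substrate, reaction stopped with HCl, after 2 h binding at 37 °C.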
Assay [7] deals with T3, polypeptide GC3pep. In words: ELISA, GC3pep coated, antibody 0.1 nM.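 Further: antibody allowed to bind the coated plate 2 h at 37 °C, then detected via HRP-conjugated secondary antibody and TMB development for 10 min, stopped with HCl.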
The target in assay [8] is T3, polypeptide GC3pep. In words: ELISA, GC3pep coated, antibody 10 nM.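 Further: antibody bound to the coated peptide for 2 h at 37 °C, detected through an HRP-conjugated secondary antibody with TMB colour development stopped by acid.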
The target in assay [9] is T3, polypeptide GC3pep. Nature of the assay: ELISA, GC3pep coated, antibody 0.01 nM.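 Further: bound antibody detected with an HRP-conjugated secondary antibody and TMB substrate, color reaction stopped with HCl before reading absorbance.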
Assay [10] deals with T5, monkey GPC3-His protein (monkey).
T5 construct: Bought protein; also called monkey GPC3 protein
Nature of the assay: ELISA, monkey GPC3-His coated; antibody 0.53 nM.

Assay [11] concerns the target T5, monkey GPC3-His protein. In words: ELISA, monkey GPC3-His coated; antibody 0.02 nM.
Assay [12] addresses T5, monkey GPC3-His protein. Nature of the assay: ELISA, monkey GPC3-His coated; antibody 2.67 nM.
For assay [13], the target named is T5, monkey GPC3-His protein. In words: ELISA, monkey GPC3-His coated; antibody 13.33 nM.
The target of assay [14] is T5, monkey GPC3-His protein. Nature of the assay: ELISA, monkey GPC3-His coated; antibody 66.66 nM.
Assay [15] deals with T5, monkey GPC3-His protein. Nature of the assay: ELISA, monkey GPC3-His coated; antibody 0.0008 nM.
Assay [16] has as its target T5, monkey GPC3-His protein. Nature of the assay: ELISA, monkey GPC3-His coated; antibody 0.11 nM.
For assay [17], the target named is T5, monkey GPC3-His protein. In words: ELISA, monkey GPC3-His coated; antibody 0.004 nM.
A further assay has as its target T6, GPC3 on HepG2 cells (human, UniProt P51654 25-554).
T6 construct: whole, on cells; also called glypican-3
In words: FACS on HepG2 cells.

T4 sequence (Q8CFZ4 25-558 limits assumed): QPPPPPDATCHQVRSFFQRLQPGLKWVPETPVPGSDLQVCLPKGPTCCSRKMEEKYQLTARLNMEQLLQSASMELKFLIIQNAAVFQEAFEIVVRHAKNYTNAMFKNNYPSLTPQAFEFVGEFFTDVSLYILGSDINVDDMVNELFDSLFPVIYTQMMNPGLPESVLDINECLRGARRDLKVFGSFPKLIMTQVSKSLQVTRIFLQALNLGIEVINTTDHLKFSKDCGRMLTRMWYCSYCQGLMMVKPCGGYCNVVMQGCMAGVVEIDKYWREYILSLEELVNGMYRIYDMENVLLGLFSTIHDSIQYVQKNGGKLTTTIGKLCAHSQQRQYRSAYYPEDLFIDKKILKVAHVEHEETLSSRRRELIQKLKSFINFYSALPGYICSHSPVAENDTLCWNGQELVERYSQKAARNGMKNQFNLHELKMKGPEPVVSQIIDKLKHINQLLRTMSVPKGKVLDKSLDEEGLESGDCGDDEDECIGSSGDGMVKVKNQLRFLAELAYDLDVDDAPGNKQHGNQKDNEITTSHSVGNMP
T2 sequence (Q8CFZ4 25-558 limits assumed): as above

B1: F1.41.17 human-murine chimeric antibody (antibody, human IgG1, kappa, V domains shown)
VH: EVQLVESGGDSVKPGGSLKLSCAASGFTFSSYGMSWVRQTPDKRLEWVATINSGGSYTYYQDSVKGRFTISRDNAKNTLYLQMSSLKSEDTAIYYCVRHHYGSSYDYFDYWGQGTTLTVSS
VL: DIVMTQAAPSVPVMPGESVSISCRSSKSLLHSNGNTHLYWFLQRPGQSPQLLIYRMSNLASGVPDRFSGSGSGTAFTLRISRVEAEDVGVYYCMQHLEYPLTFGAGTKLELKR
notes: Chimeric
Turning to B1, the binding result in [1] and in assay [2] was “no binding (tested: 100 nM)” in each case.

B2: F1.21.8 (antibody, human IgG1, kappa, V domains shown)
VH: EVQLQQSGPELVKPGASVKISCKTSGFLFTGHYMHWVKSSHGNILDWIGYIYPYNAISFYNQKFKGKATLTVDKSSNTAYMELRSLTSEDSAVYYCARGDYGNYVTAYWGQGTLVTVSA
VL: DVLMTQTPLSLPVSLGDQASISCRSSQSIVHSSGNTYLEWYLQKPGQSPKLLIYKVSNRFSGVPDRFSGSGSGTDFTLKISRVEAEDLGVYYCFQGSHLPWTFGGGTKLDIKR
notes: human-murine chimeric antibody
As to B2, the OD450 nm in the assay with polypeptide GC3pep [3], with polypeptide GC3pep [4], with polypeptide GC3pep [5], with polypeptide GC3pep [6], with polypeptide GC3pep [7] and in the assay with polypeptide GC3pep [8] was 0.05 OD450 nm in each case. The OD450 nm with polypeptide GC3pep [9] was found to be 0.05 OD450 nm. In the assay with murine GPC3-His protein, the Kd (in general, the equilibrium constant for the complex coming apart) was 0.0771 nM. Besides, in the assay with murine GPC3-His protein, the koff (in general, the rate constant with which the complex falls apart) worked out at 4.84e-05 s⁻¹. In addition, the kon (in general, the second-order rate constant of association) with murine GPC3-His protein is 628000 M⁻¹ s⁻¹.

B3: F4.21.16 human-murine chimeric antibody (antibody, human IgG1, kappa, V domains shown)
VH: DVQLQESGPGLVKPSQSLSLTCSVTGYSITSGYYWNWIRQFPGNKLEWMGYISYDVTVNYNPSLKNRISITRDTSKNQFFLKLNSVTTEDTATYYCATITSVASMDHWGQGTSVTVSS
VL: DILMTQTPLSLPVSLGDQASISCRSSQNIVHRNGNTYLEWYLQKPGQSPKLLLYKVSNRFSGVPDRFSGSGSGTDFTLKISRVEAEDLGIYYCFQGSHFPFTFGSGTKLEIKR
notes: Chimeric
Regarding B3, the binding result in [1] and in assay [2] was “no binding (tested: 100 nM)” each time.

B4: F1.111.11 (antibody, human IgG1, kappa, V domains shown)
VH: EVQLQQSGPELVKPGASVKISCKASGYTFTDYYMNWVKQSHGKSLEWIGDIYPNNGDTTYNQRFKGKATLTVDKSSSTAYMELRSLASEDSAVYYCACPYNNPFGYWGQGTLVTVSA
VL: DVVMTQTPLSLPVSLGDQASISCRSSQSLVHSNGNTYLHWYLQKPGQSPKLLIYKVSNRFSGVPDRFSGSGSGTDFTLKISRVEAEDLGVYFCSQSTHVPWTFGGGTKLEIKR
notes: as for B2
For the molecule B4, the OD450 nm with polypeptide GC3pep [3] amounted to 0.06 OD450 nm; with polypeptide GC3pep [4], 0.15 OD450 nm; in the assay with polypeptide GC3pep [5], 0.06 OD450 nm; in the assay with polypeptide GC3pep [6], 0.06 OD450 nm; in the assay with polypeptide GC3pep [7], 0.06 OD450 nm; with polypeptide GC3pep [8] it was 0.06 OD450 nm. This molecule also came in with an OD450 nm in the assay with polypeptide GC3pep [9] of 0.05 OD450 nm. The Kd in the assay with murine GPC3-His protein came out at 3.47 nM. For the same molecule, the koff with murine GPC3-His protein turned out to be 0.00045 s⁻¹. Moreover, the kon in the assay with murine GPC3-His protein is 129000 M⁻¹ s⁻¹.

B5: F1.2.14 (antibody, human IgG1, kappa, V domains shown)
VH: RVQLQQSGAELVKPGASVRMSCKASGYTFTAYSIEWMKQNLGKSLEWIGNFRPYNDDTKYNENFKGRATLTVEKSSATVYLELSRLTSDDSAVYYCARSGPTDYFDYWGQGTTLIVSS
VL: DIQMTQSPASLSASVGETVTITCRASDNIYSYLAWYQQKQGQSPQLLVYNAKTLAEGVPSRFSGSGSVTQFSLKIISLQPEDFGTYYCQHHFGTPRTFGGGTKLEIKR
notes: as for B2
Take B5: the OD450 nm with polypeptide GC3pep [3], in the assay with polypeptide GC3pep [4], with polypeptide GC3pep [5], with polypeptide GC3pep [6], in the assay with polypeptide GC3pep [7] and with polypeptide GC3pep [8] was 0.05 OD450 nm each time. Further, in the assay with polypeptide GC3pep [9], the OD450 nm was 0.05 OD450 nm. In the assay with murine GPC3-His protein, this molecule had a Kd of 0.844 nM. In addition, the koff in the assay with murine GPC3-His protein was 0.000147 s⁻¹. This molecule displayed a kon with murine GPC3-His protein of 174000 M⁻¹ s⁻¹.

B6: F1.145.22 (antibody, human IgG1, kappa, V domains shown)
VH: QVQLQQSGTDLARPGASVKLSCKASGYTFTSFGISWVKQRTGQGLEWIGEIYPRSGSPYYNEKFTGKATLTADKSSSTAYMELRSLTSEDSAVYFCAKDFGSSYVFDYWGQGTALTVSS
VL: DIQMTQSPASLSASVGETVTITCRASENIYSYLTWYQQKQGKSPQLLVYNAKTLAEGVPSRFSGSGSGTQFSLKINSLQPEDFGTYYCQHHYGTPPTFGTGTKLDLKR
notes: as for B2
For B6, the OD450 nm with polypeptide GC3pep [3] worked out at 0.04 OD450 nm; with polypeptide GC3pep [4] it was 0.11 OD450 nm; in the assay with polypeptide GC3pep [5] it was 0.04 OD450 nm; with polypeptide GC3pep [6], 0.04 OD450 nm; with polypeptide GC3pep [7] it was 0.04 OD450 nm; in the assay with polypeptide GC3pep [8] it was 0.05 OD450 nm. The OD450 nm with polypeptide GC3pep [9] is 0.04 OD450 nm. This molecule also gave a Kd with murine GPC3-His protein of 6.87 nM. The molecule further returned an off-rate constant (koff) in the assay with murine GPC3-His protein of 0.00173 s⁻¹. In the assay with murine GPC3-His protein, this molecule displayed a kon of 251000 M⁻¹ s⁻¹.

B7: hAb007LH2L1b (antibody, human IgG1, V domains shown)
VH: EVQLVQSGAEVKKPGSSVKVSCKASGYTFTDYEMHWVRQAPGQGLEWMGTIDPETGNTAYNQKFKGRVTITADKSTSTAYMELSSLRSEDTAVYYCTRPYSLTYWGQGTLVTVSS
VL: DIVMTQTPLSLPVTPGEPASISCRSSQSFVHSNRDTYLQWYLQKPGQSPQLLIYKVSNRFSGVPDRFSGSGSGTDFTLKISRVEAEDVGVYYCFQGSHVPYTFGQGTKLEIK
notes: Humanized F3.81.19, H2+L1b
Turning to B7, the OD450 nm with monkey GPC3-His protein [10] worked out at 2.09; with monkey GPC3-His protein [11], 0.32; with monkey GPC3-His protein [12], 2.35; with monkey GPC3-His protein [13], 2.56; in the assay with monkey GPC3-His protein [14] it was 2.61; with monkey GPC3-His protein [15], 0.08. Moreover, the values for the OD450 nm in the assay with monkey GPC3-His protein [16] and with monkey GPC3-His protein [17] were 0.967 and 0.127, respectively. Also, a half-maximal response with GPC3 on HepG2 cells (EC50) required 9.53 nM. Moreover, in the assay with GPC3 on HepG2 cells, the “Max MFI” value stood at 5320.

B8: hAb003LH2L1b (antibody, human IgG1, V domains shown)
VH: EVQLVQSGAEVKKPGSSVKVSCKASGYRFTDYEMHWVRQAPGQGLEWMGTIDPETGNTAYTQKFMDRVTITADKSTSTAYMELSSLRSEDTAVYYCTRGYSFTYWGQGTLVTVSS
VL: DIVMTQTPLSLPVTPGEPASISCRSSQNIVHSNRNTYLQWYLQKPGQSPQLLIFKVSNRFSGVPDRFSGSGSGTDFTLKISRVEAEDVGVYYCFQGSHVPFTFGQGTKLEIK
notes: Humanized F2.154.1, H2+L1b
B8: the OD450 nm with monkey GPC3-His protein [10] turned out to be 2.3; with monkey GPC3-His protein [11], 1.1; in the assay with monkey GPC3-His protein [12], 2.36; in the assay with monkey GPC3-His protein [13] it was 2.27; in the assay with monkey GPC3-His protein [14] it was 2.35; in the assay with monkey GPC3-His protein [15], 0.185. Besides, the OD450 nm with monkey GPC3-His protein [16] was determined as 1.96; with monkey GPC3-His protein [17], 0.386. Also, the EC50 – broadly, the midpoint of the concentration-response curve – with GPC3 on HepG2 cells was 0.84 nM. Besides, the “Max MFI” value in the assay with GPC3 on HepG2 cells is 4620.

B9: F4.26.1 (antibody, human IgG1, kappa, V domains shown)
VH: QVQLKQSGPGLVQPSQSLSITCTVSGFSLTSYGVHWVRQSPGKGLEWLGVIWSSGNTDYNAVLISRLSIKKDDSKSQVFFKMNSPQVDDSAIYYCGRNGGWLLRGFMDFWGQGTSVTVSS
VL: DVVMTQTPLSLPVSLGDQASISCRSSQSLLHSNGNTYLHWYLQRSGQSPNLLIYKVSNRFSGVPDRFSGGGSGTDFTLKISRVEAEDLGIYFCSQSTHVPWTFGGGTKLEIKR
notes: as for B2
Consider B9, for which the OD450 nm with polypeptide GC3pep [3] was 0.19 OD450 nm; in the assay with polypeptide GC3pep [4] it was 0.12 OD450 nm; in the assay with polypeptide GC3pep [5], 0.05 OD450 nm; in the assay with polypeptide GC3pep [6], 0.28 OD450 nm; with polypeptide GC3pep [7] it was 0.08 OD450 nm; with polypeptide GC3pep [8], 0.04 OD450 nm. The OD450 nm with polypeptide GC3pep [9] is 0.16 OD450 nm. The same molecule came in with a Kd with murine GPC3-His protein of 1.46 nM. This molecule returned a koff in the assay with murine GPC3-His protein of 0.00072 s⁻¹. The molecule further returned a kon with murine GPC3-His protein of 492000 M⁻¹ s⁻¹.
